± gives the half width of the 95% confidence interval.
Columns and labels:
[1] = folding stability dG unfold from trypsin proteolysis; higher = more stable
Procedure, shortened: (§1)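 Bayesian fitting of sequencing counts gave K50 for each design. Unfolding free energy followed by setting this against a sequence-predicted unfolded-state K50 and a shared folded-state K50, either per protease or with trypsin and chymotrypsin combined. The designs, under 80 residues and lacking cysteine, were digested in a PA-tagged cDNA display format at 11 threefold-diluted protease concentrations and without protease, and only those with AlphaFold2 dimer inter-PAE above 15 were kept.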

[2] = folding stability dG unfold from chymotrypsin proteolysis; higher = more stable
Procedure, shortened: as §1

[3] = folding stability dG unfold (combined trypsin and chymotrypsin); higher = more stable
Procedure, shortened: as §1

Sequence	folding stability dG unfold [1]	folding stability dG unfold [2]	folding stability dG unfold [3]
SMRVVLVRPVPPELKEAELELRLPLPDGSEVEVKAETGEDFVVVTIELDDESAAEAVVEELEKLLEELLGSA [r9_790_TrMRF]	0.926 ± 0.019 kcal/mol	1.17 ± 0.034 kcal/mol	1.13 ± 0.053 kcal/mol
SAMNLRFPLSTEALAKLLENLTPDQTLELRVRIGDRWVRVRLEIHRIERKEDELRVEVTLEVEPLRPEDSAG [r14_335_TrMRF]	3.33 ± 0.095 kcal/mol	3.34 ± 0.06 kcal/mol	3.35 ± 0.19 kcal/mol
SAHTISIRIPPNMKPITAEELKKEPGYEVKDINVYPNEDGNMYFTIEVEPGMPPKKMDEILERIRDRMGSAG [r14_421_TrROS]	0.764 ± 0.034 kcal/mol	0.911 ± 0.038 kcal/mol	0.862 ± 0.059 kcal/mol
SAGGSAGGSAGSTALVETREFEDGTVVERVEVTLPNGEVLERTVVLTRDEAGNVVEEEVESAGGSAGGSAGG [r11_709_JUSTAS]	0.224 ± 0.03 kcal/mol	1.29 ± 0.021 kcal/mol	0.958 ± 0.053 kcal/mol
SAGGSAGGSAGGMLILVEVNGEKRLLEADSLEDALAKLPPGATVTRVEIFEVEEVELPESAGGSAGGSAGGS [r10_13_TrROS_Hall]	2.36 ± 0.067 kcal/mol	2 ± 0.059 kcal/mol	2.15 ± 0.068 kcal/mol
SAGGSAGGSAGSSVKTYTGKGKKITITKLDNGTYIVTTPDKTSTYPPSVSEEEVIKKALESAGGSAGGSAGG [r17_272_JUSTAS]	0.506 ± 0.093 kcal/mol	-0.0797 ± 0.44 kcal/mol	0.282 ± 0.17 kcal/mol
SAGGSAGGSAGGKMWIMIPKNEPINLPPGFDKVEIMTNPDDGYVMIRVDSPEDFKRLLEASAGGSAGGSAGG [r7_172_TrROS]	1.405 ± 0.01 kcal/mol	0.866 ± 0.058 kcal/mol	1.2 ± 0.065 kcal/mol
SAGGSAGGSAGGSVSELPPISTKTTTTVTTTSDGTKVVYTTTTYSDGTTTTTSGPVPAASAGGSAGGSAGGS [r10_682_JUSTAS]	0.565 ± 0.049 kcal/mol	1.14 ± 0.067 kcal/mol	1.09 ± 0.13 kcal/mol
SAGMLSVEQLLEALKEGKEILIVAESPEERERAKRLLAEELGLSEEEIDALLKKAKIKVLPADDPELKKSAG [r5_368_TrROS_Hall]	1.35 ± 0.086 kcal/mol	2.72 ± 0.16 kcal/mol	2.46 ± 0.2 kcal/mol
SAGMDLKIEEEEDPLSGSRLFRIELRDPDGKYNLTVVVLKENGKIKAVLVLRENTGEPLTLPELVELLESAG [r5_872_TrMRF]	2.83 ± 0.19 kcal/mol	3.773 ± 0.017 kcal/mol	3.43 ± 0.086 kcal/mol
SAGGSAGGSAGGSLKVEVTLDPETNELTVRTTLTLPPPPPPPPTTTTTTTTTLAPGETASAGGSAGGSAGGS [r10_86_TrROS_Hall]	-0.349 ± 0.43 kcal/mol	0.776 ± 0.22 kcal/mol	0.0927 ± 0.38 kcal/mol
SAGGSATIEEIAQEIADNLPPGRKYRAKIYYDGEERTYEFRNPNGFKINITWKNGKIRSIDIEPRPSAGGSA [r15_175_TrROS]	1.63 ± 0.046 kcal/mol	2.01 ± 0.16 kcal/mol	1.94 ± 0.17 kcal/mol
SAGGSAGGSPNDMKEVDFPIKFPKEKFKVKIWRHPDDPNRYYIRFPSNGAIFWFDPNGDIEPLSAGGSAGGS [r12_580_TrROS]	1.01 ± 0.056 kcal/mol	1.75 ± 0.085 kcal/mol	1.49 ± 0.1 kcal/mol
SAGKTVTKTKTEYEYKDGKLEKKKVKTETIEPKPKIEVKEVKITLKDGSEVTAKIVSIDPKTKKVVIELSAG [r5_735_TrROS_Hall]	0.26 ± 0.099 kcal/mol	-0.0238 ± 0.075 kcal/mol	0.0452 ± 0.23 kcal/mol
SAGGSAGGSAGGGMAITTRPGSSEVSTTPVPSDVTASTTTPLASGEPVEVTYERVGDPTLSAGGSAGGSAGG [r7_21_JUSTAS]	0.405 ± 0.022 kcal/mol	-0.525 ± 0.16 kcal/mol	0.0781 ± 0.079 kcal/mol
SAGGSVEVTKTESKGPGGTVTVEALKTVTKFDEKGNPVKEEEVRITRTETYDPNTGKVTTTTTVEGSAGGSA [r2_220_JUSTAS]	-0.0891 ± 0.061 kcal/mol	0.709 ± 0.018 kcal/mol	0.487 ± 0.067 kcal/mol
SAGGSAGGSAGGPNHYVMATETIEFEFEIRTRNEDGKPQEIKIKFTLTVIRMFPLPPGDPSAGGSAGGSAGG [r7_926_TrROS]	3.36 ± 0.42 kcal/mol	5.03 ± 0.26 kcal/mol	4.73 ± 0.25 kcal/mol
SPGVTVEISTSTLPNGTRVTTLTTTTFDPQTGTTSTTTTVTVSPAPSSASPLRRELVTRPDGTLVPAALLSA [r9_898_JUSTAS]	-0.234 ± 0.13 kcal/mol	0.235 ± 0.16 kcal/mol	0.168 ± 0.076 kcal/mol
SPGWYKVDIEIPMKEIQEEFGDPDKPITADRIKERVKKIAETIGFEVRDVEIEMDPNGWVRVTVTIPVKNSA [r9_52_TrROS]	3.77 ± 0.3 kcal/mol	3.89 ± 0.11 kcal/mol	3.64 ± 0.19 kcal/mol
SAGGSAGGSAKPVYKIRIVVKKDGKEFVKEIEVPEDEEEAEALAKELAKKPEVEKVEVEKVSAGGSAGGSAG [r3_310_TrROS_Hall]	0.739 ± 0.075 kcal/mol	1.84 ± 0.058 kcal/mol	1.62 ± 0.18 kcal/mol
SAGGSAGGMVFENLSEEEAKIIAKNIAENFKKKYPNVKIKVEAEVYKLPNPKVIVVIKLEIEEESAGGSAGG [r6_787_TrMRF]	2.55 ± 0.086 kcal/mol	3.54 ± 0.07 kcal/mol	3.09 ± 0.15 kcal/mol

Sequence	folding stability dG unfold [1]	folding stability dG unfold [2]	folding stability dG unfold [3]
SAGGLPPGWKPIDIMVLVPPGEPLTEDQVEELAKEIARELQEKGVTIDVRVWPTDDWYFVSVDIQVPDSAGG [r13_442_TrROS]	2.08 ± 0.11 kcal/mol	1.31 ± 0.13 kcal/mol	1.73 ± 0.18 kcal/mol
DDNQEYEYENPGGMKMRVEYNPSTGNMKVEMEPVPPVPPIPPIMIPLDLTPEQANRLINELQDLGIPIMVGS [r1_242_TrROS]	0.906 ± 0.06 kcal/mol	1.33 ± 0.086 kcal/mol	1.16 ± 0.16 kcal/mol
SAGGEVKVEIEVELNEDGTLRVRARVEVRVDGELVTVEVEIEVRLEPAPPPAPPPVLVVDPETGEILSAGGS [r8_269_TrROS_Hall]	3.29 ± 0.2 kcal/mol	1.94 ± 0.11 kcal/mol	2.7 ± 0.21 kcal/mol
SAGGSAGGSAAKPIPFTITSVSVPTAPDGKKYAVVEISFPGSGAKAWAVYDIDDPYIKEAGSAGGSAGGSAG [r3_57_TrMRF]	0.804 ± 0.095 kcal/mol	1.71 ± 0.15 kcal/mol	1.37 ± 0.1 kcal/mol
SAGGSAEIELPEGAKVEVTEVEVDGELYLRMKVVDEETGEVFVMEMRMRPDGEMEMEVKKIPKEELSAGGSA [r15_986_TrROS_Hall]	1.3 ± 0.19 kcal/mol	2.2 ± 0.34 kcal/mol	1.85 ± 0.27 kcal/mol
SAGGSAGGSPVVAIRAKSREELLAALEALLPPGQKLTPEQRQQLVDTLLANLDVKPGDTILVRSAGGSAGGS [r12_983_TrROS_Hall]	1.07 ± 0.064 kcal/mol	0.921 ± 0.034 kcal/mol	0.992 ± 0.12 kcal/mol
SAGGMTLDELRALLAAGKVTIEPVAPDRWLVTVRGPDGEEFTFEFESLEELLDALRAIPGLEVEVRPVSAGG [r13_600_TrROS_Hall]	3.29 ± 0.1 kcal/mol	3.905 ± 0.036 kcal/mol	3.71 ± 0.044 kcal/mol
SAGGSAGGSAGGNPGGKRQWVMMEFPIPPGKKIELPPNFNVSIFRDNDRLWLMITVDAVKSAGGSAGGSAGG [r7_584_TrROS]	1.7 ± 0.07 kcal/mol	1.88 ± 0.06 kcal/mol	1.9 ± 0.11 kcal/mol
SAGGPNVPIRIRVTIERQDPDGEPKDFEFPIEYPMPPDDPEQAKEQIEELAESIAEKHGYKVEIEIEPSAGG [r13_853_TrROS]	-0.664 ± 0.18 kcal/mol	-0.45 ± 0.29 kcal/mol	-0.627 ± 0.55 kcal/mol
SAGGSAKKYIVLAKIKEVKVTKTYKTKNGKKVKVTVKVEIKVEPVKVFKIKKDKNGNWKIEPGEVLSAGGSA [r15_162_TrROS_Hall]	2.96 ± 0.15 kcal/mol	2.88 ± 0.14 kcal/mol	3.14 ± 0.28 kcal/mol
SAGMAEKIKAELEKKGYKYEIEEVKDPNNDKTYLIVKIYPKDGKEYIIIFDKEKGEVIKKIPSDEPNILSAG [r5_938_JUSTAS]	1.49 ± 0.13 kcal/mol	1.59 ± 0.14 kcal/mol	1.64 ± 0.24 kcal/mol
SMKPPVVEIKAKVVEVKEVNGKLYVKVEITEIKDAPPEVKELIKEGKTILVEVKPGEEVKEGDEVTIKIVSA [r9_557_TrROS_Hall]	2.46 ± 0.21 kcal/mol	2.03 ± 0.22 kcal/mol	2.32 ± 0.3 kcal/mol
SAGGSAGGSAGGSSMSISVLEVRELPNGTLEITTVDYNPDNGYTTTTTYTLPPGQPLLISAGGSAGGSAGGS [r4_133_JUSTAS]	1.8 ± 0.053 kcal/mol	1.62 ± 0.045 kcal/mol	1.74 ± 0.068 kcal/mol
SAGGSAKPEKVIVLEIEIEMTPEEVKKLVEELLKEKFGVEIERIEVEVERLPDGTLKVRVRVVIRESAGGSA [r15_138_TrROS_Hall]	3.31 ± 0.13 kcal/mol	2.94 ± 0.12 kcal/mol	3.17 ± 0.084 kcal/mol
SSSSMKTVFDPNRPYPRTVLVTFLPDGTVVITAPGKKLSTVKVEIEPPPPLELRPRVSPNGERSPGYLRLGS [r1_496_JUSTAS]	1.1 ± 0.18 kcal/mol	1.76 ± 0.14 kcal/mol	1.47 ± 0.16 kcal/mol
SAGGMKKYKVTVTIELTPPDGTTTTVTVTIDVDGDEKKALEEAEKVAEELKAAGYPVTIKEIKIYEESAGGS [r16_525_JUSTAS]	3.8 ± 0.37 kcal/mol	4.51 ± 0.3 kcal/mol	4.69 ± 0.78 kcal/mol
SAGGEEIEAEVVEVRTFTLENGFEVTTTLIRVDGKLILITSVKKTKNGKWEVVEVKELPLEELSPEELSAGG [r13_494_TrROS_Hall]	3.35 ± 0.14 kcal/mol	2.73 ± 0.035 kcal/mol	2.93 ± 0.14 kcal/mol
SAVSTAQLPDDTTLTTITLPGDPSVTLTITTRKLPDGTPYLDATITLPDGTPVTVTFPAGTEAAVIAALASA [r9_310_JUSTAS]	2.51 ± 0.097 kcal/mol	2.46 ± 0.029 kcal/mol	2.44 ± 0.086 kcal/mol
SGMPTVTLNVTIEFERERLSFDPKTGKPRLELVKVTKPVTITGFFTSPEEAAAAAEAVRKALEADPEALASA [r9_77_JUSTAS]	1.7 ± 0.068 kcal/mol	2.37 ± 0.034 kcal/mol	2.07 ± 0.084 kcal/mol
SAGGSAGGSAMVVEERRLPDDLLVRTEVEPVEDNELPGPALRVTVTTVDLKTGEETPEVIPESAGGSAGGSA [r18_66_JUSTAS]	-0.713 ± 0.16 kcal/mol	0.168 ± 0.03 kcal/mol	-0.0827 ± 0.091 kcal/mol
SAGGKEKKKEKEEKKKKPKPKFIKIKLSPEELLKLAKELPNIDRIFVEVDGKLYEFDAKTGKIVEVDSAGGS [r16_214_TrROS_Hall]	1.28 ± 0.1 kcal/mol	2.4 ± 0.08 kcal/mol	1.97 ± 0.18 kcal/mol

— the supplement of paper PMC12764529
